T1: EsCas13d, nuclease-dead (Eubacterium siraeum, UniProt B0MS50, R295A;H300A;R849A;H854A)
T1 sequence: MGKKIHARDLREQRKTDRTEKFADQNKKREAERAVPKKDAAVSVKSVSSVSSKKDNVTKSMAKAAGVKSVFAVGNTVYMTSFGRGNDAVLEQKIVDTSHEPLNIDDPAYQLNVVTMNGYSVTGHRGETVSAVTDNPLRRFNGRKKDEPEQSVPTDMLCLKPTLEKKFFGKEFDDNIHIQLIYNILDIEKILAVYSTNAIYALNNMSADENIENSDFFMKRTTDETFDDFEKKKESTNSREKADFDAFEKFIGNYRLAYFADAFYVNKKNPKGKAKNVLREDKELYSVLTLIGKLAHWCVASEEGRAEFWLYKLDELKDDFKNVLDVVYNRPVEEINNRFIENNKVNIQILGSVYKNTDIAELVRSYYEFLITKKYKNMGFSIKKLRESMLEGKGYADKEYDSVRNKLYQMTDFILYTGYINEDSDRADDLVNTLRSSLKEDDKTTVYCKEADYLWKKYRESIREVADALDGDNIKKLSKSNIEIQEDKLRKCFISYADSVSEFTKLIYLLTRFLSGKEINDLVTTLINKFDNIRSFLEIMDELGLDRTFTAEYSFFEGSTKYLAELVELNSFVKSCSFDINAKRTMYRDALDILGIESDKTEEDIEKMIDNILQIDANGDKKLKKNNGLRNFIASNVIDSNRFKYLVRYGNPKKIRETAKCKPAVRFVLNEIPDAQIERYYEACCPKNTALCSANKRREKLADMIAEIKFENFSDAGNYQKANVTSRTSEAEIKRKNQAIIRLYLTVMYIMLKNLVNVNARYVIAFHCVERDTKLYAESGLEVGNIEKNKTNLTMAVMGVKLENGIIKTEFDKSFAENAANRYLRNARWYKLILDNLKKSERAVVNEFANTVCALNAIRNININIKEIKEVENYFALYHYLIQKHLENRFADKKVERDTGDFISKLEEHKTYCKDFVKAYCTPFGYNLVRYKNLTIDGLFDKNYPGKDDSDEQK

B1: target 3 A5G,U22C (mixed)
RNA 1: CACCCGUGCAAAAUUGCAGGGGUCUAAAACGACCUGAAUAUUUCAGAUCAAA
RNA 2: GGGAAUGGAUCCACAUCUACGAAUUCGUUCUUGAUCUGAAAUAUUCGGGUCUGCAGAUCGGAAGAGCACACGU
B2: target 3 insG 3' of 5,insU 3' of 3 (mixed)
RNA 1: CACCCGUGCAAAAUUGCAGGGGUCUAAAACGACCUGAAUAUUUCAGAUCAAA
RNA 2: GGGAAUGGAUCCACAUCUACGAAUUCGUUUUUGAUCUGAAAUAUUCAGGGUUCUGCAGAUCGGAAGAGCACACGU
B3: target 3 G4A,A13G (mixed)
RNA 1: CACCCGUGCAAAAUUGCAGGGGUCUAAAACGACCUGAAUAUUUCAGAUCAAA
RNA 2: GGGAAUGGAUCCACAUCUACGAAUUCGUUUUUGAUCUGGAAUAUUCAAGUCUGCAGAUCGGAAGAGCACACGU
B4: target 3 U2G (mixed)
RNA 1: CACCCGUGCAAAAUUGCAGGGGUCUAAAACGACCUGAAUAUUUCAGAUCAAA
RNA 2: GGGAAUGGAUCCACAUCUACGAAUUCGUUUUUGAUCUGAAAUAUUCAGGGCUGCAGAUCGGAAGAGCACACGU
B5: target 3 insU 3' of 3 (mixed)
RNA 1: CACCCGUGCAAAAUUGCAGGGGUCUAAAACGACCUGAAUAUUUCAGAUCAAA
RNA 2: GGGAAUGGAUCCACAUCUACGAAUUCGUUUUUGAUCUGAAAUAUUCAGGUUCUGCAGAUCGGAAGAGCACACGU
B6: target 3 U22G (mixed)
RNA 1: CACCCGUGCAAAAUUGCAGGGGUCUAAAACGACCUGAAUAUUUCAGAUCAAA
RNA 2: GGGAAUGGAUCCACAUCUACGAAUUCGUUGUUGAUCUGAAAUAUUCAGGUCUGCAGAUCGGAAGAGCACACGU
B7: target 3 C6U,U7G (mixed)
RNA 1: CACCCGUGCAAAAUUGCAGGGGUCUAAAACGACCUGAAUAUUUCAGAUCAAA
RNA 2: GGGAAUGGAUCCACAUCUACGAAUUCGUUUUUGAUCUGAAAUAUGUAGGUCUGCAGAUCGGAAGAGCACACGU
B8: target 3 insA 3' of 7,insG 3' of 6 (mixed)
RNA 1: CACCCGUGCAAAAUUGCAGGGGUCUAAAACGACCUGAAUAUUUCAGAUCAAA
RNA 2: GGGAAUGGAUCCACAUCUACGAAUUCGUUUUUGAUCUGAAAUAUUACGAGGUCUGCAGAUCGGAAGAGCACACGU
B9: target 3 insG 3' of 7,insU 3' of 5 (mixed)
RNA 1: CACCCGUGCAAAAUUGCAGGGGUCUAAAACGACCUGAAUAUUUCAGAUCAAA
RNA 2: GGGAAUGGAUCCACAUCUACGAAUUCGUUUUUGAUCUGAAAUAUUGCAUGGUCUGCAGAUCGGAAGAGCACACGU
B10: target 3 U2A,A9G (mixed)
RNA 1: CACCCGUGCAAAAUUGCAGGGGUCUAAAACGACCUGAAUAUUUCAGAUCAAA
RNA 2: GGGAAUGGAUCCACAUCUACGAAUUCGUUUUUGAUCUGAAAUGUUCAGGACUGCAGAUCGGAAGAGCACACGU
B11: target 3 insU 3' of 3,insU 3' of 3 (mixed)
RNA 1: CACCCGUGCAAAAUUGCAGGGGUCUAAAACGACCUGAAUAUUUCAGAUCAAA
RNA 2: GGGAAUGGAUCCACAUCUACGAAUUCGUUUUUGAUCUGAAAUAUUCAGGUUUCUGCAGAUCGGAAGAGCACACGU
B12: target 3 insC 3' of 3,insU 3' of 3 (mixed)
RNA 1: CACCCGUGCAAAAUUGCAGGGGUCUAAAACGACCUGAAUAUUUCAGAUCAAA
RNA 2: GGGAAUGGAUCCACAUCUACGAAUUCGUUUUUGAUCUGAAAUAUUCAGGCUUCUGCAGAUCGGAAGAGCACACGU
B13: target 3 insG 3' of 9,insG 3' of 7 (mixed)
RNA 1: CACCCGUGCAAAAUUGCAGGGGUCUAAAACGACCUGAAUAUUUCAGAUCAAA
RNA 2: GGGAAUGGAUCCACAUCUACGAAUUCGUUUUUGAUCUGAAAUAGUUGCAGGUCUGCAGAUCGGAAGAGCACACGU
B14: target 3 insG 3' of 9,insA 3' of 6 (mixed)
RNA 1: CACCCGUGCAAAAUUGCAGGGGUCUAAAACGACCUGAAUAUUUCAGAUCAAA
RNA 2: GGGAAUGGAUCCACAUCUACGAAUUCGUUUUUGAUCUGAAAUAGUUCAAGGUCUGCAGAUCGGAAGAGCACACGU
B15: target 3 U8A,A18G (mixed)
RNA 1: CACCCGUGCAAAAUUGCAGGGGUCUAAAACGACCUGAAUAUUUCAGAUCAAA
RNA 2: GGGAAUGGAUCCACAUCUACGAAUUCGUUUUUGGUCUGAAAUAAUCAGGUCUGCAGAUCGGAAGAGCACACGU
B16: target 3 insC 3' of 22,insC 3' of 5 (mixed)
RNA 1: CACCCGUGCAAAAUUGCAGGGGUCUAAAACGACCUGAAUAUUUCAGAUCAAA
RNA 2: GGGAAUGGAUCCACAUCUACGAAUUCGUUUCUUGAUCUGAAAUAUUCACGGUCUGCAGAUCGGAAGAGCACACGU
B17: target 3 A13G (mixed)
RNA 1: CACCCGUGCAAAAUUGCAGGGGUCUAAAACGACCUGAAUAUUUCAGAUCAAA
RNA 2: GGGAAUGGAUCCACAUCUACGAAUUCGUUUUUGAUCUGGAAUAUUCAGGUCUGCAGAUCGGAAGAGCACACGU
B18: target 3 insA 3' of 10,insA 3' of 6 (mixed)
RNA 1: CACCCGUGCAAAAUUGCAGGGGUCUAAAACGACCUGAAUAUUUCAGAUCAAA
RNA 2: GGGAAUGGAUCCACAUCUACGAAUUCGUUUUUGAUCUGAAAUAAUUCAAGGUCUGCAGAUCGGAAGAGCACACGU
B19: target 3 G3C,A5C (mixed)
RNA 1: CACCCGUGCAAAAUUGCAGGGGUCUAAAACGACCUGAAUAUUUCAGAUCAAA
RNA 2: GGGAAUGGAUCCACAUCUACGAAUUCGUUUUUGAUCUGAAAUAUUCCGCUCUGCAGAUCGGAAGAGCACACGU
B20: target 3 C1A,U22G (mixed)
RNA 1: CACCCGUGCAAAAUUGCAGGGGUCUAAAACGACCUGAAUAUUUCAGAUCAAA
RNA 2: GGGAAUGGAUCCACAUCUACGAAUUCGUUGUUGAUCUGAAAUAUUCAGGUAUGCAGAUCGGAAGAGCACACGU
B21: target 3 insA 3' of 3,insA 3' of 2 (mixed)
RNA 1: CACCCGUGCAAAAUUGCAGGGGUCUAAAACGACCUGAAUAUUUCAGAUCAAA
RNA 2: GGGAAUGGAUCCACAUCUACGAAUUCGUUUUUGAUCUGAAAUAUUCAGGAUACUGCAGAUCGGAAGAGCACACGU
B22: target 3 insG 3' of 7,insA 3' of 6 (mixed)
RNA 1: CACCCGUGCAAAAUUGCAGGGGUCUAAAACGACCUGAAUAUUUCAGAUCAAA
RNA 2: GGGAAUGGAUCCACAUCUACGAAUUCGUUUUUGAUCUGAAAUAUUGCAAGGUCUGCAGAUCGGAAGAGCACACGU
B23: target 3 U2G,A9U (mixed)
RNA 1: CACCCGUGCAAAAUUGCAGGGGUCUAAAACGACCUGAAUAUUUCAGAUCAAA
RNA 2: GGGAAUGGAUCCACAUCUACGAAUUCGUUUUUGAUCUGAAAUUUUCAGGGCUGCAGAUCGGAAGAGCACACGU
B24: target 3 C6U,A9G (mixed)
RNA 1: CACCCGUGCAAAAUUGCAGGGGUCUAAAACGACCUGAAUAUUUCAGAUCAAA
RNA 2: GGGAAUGGAUCCACAUCUACGAAUUCGUUUUUGAUCUGAAAUGUUUAGGUCUGCAGAUCGGAAGAGCACACGU
B25: target 3 G3C,U8A (mixed)
RNA 1: CACCCGUGCAAAAUUGCAGGGGUCUAAAACGACCUGAAUAUUUCAGAUCAAA
RNA 2: GGGAAUGGAUCCACAUCUACGAAUUCGUUUUUGAUCUGAAAUAAUCAGCUCUGCAGAUCGGAAGAGCACACGU
B26: target 1 insC 3' of 9,insU 3' of 6 (mixed)
RNA 1: CACCCGUGCAAAAAUGCAGGGGUCUAAAACUGAGCGGAUAACCUCUCUAUGG
RNA 2: GGGAAUGGAUCCACAUCUACGAAUUCGUACCAUAGAGAGGUUACUCCUGCUCACCGAGAUCGGAAGAGCACACGU
B27: target 1 insA 3' of 5,insU 3' of 1 (mixed)
RNA 1: CACCCGUGCAAAAAUGCAGGGGUCUAAAACUGAGCGGAUAACCUCUCUAUGG
RNA 2: GGGAAUGGAUCCACAUCUACGAAUUCGUACCAUAGAGAGGUUAUCCGACUCAUCCGAGAUCGGAAGAGCACACGU
B28: target 1 A1G,U3A (mixed)
RNA 1: CACCCGUGCAAAAAUGCAGGGGUCUAAAACUGAGCGGAUAACCUCUCUAUGG
RNA 2: GGGAAUGGAUCCACAUCUACGAAUUCGUACCAUAGAGAGGUUAUCCGCACGCCGAGAUCGGAAGAGCACACGU

Target: T1, EsCas13d, nuclease-dead
Experiment: crRNA (strand 1, pre-loaded); Mg2+; 40 mM Tris-HCl pH 7.5, 150 mM NaCl, 6 mM MgCl2, 1 mM DTT, 0.1% Tween-20, 0.2 mg/ml BSA; 25 C; 10 min per concentration, then washed
Conditions: tags: His6-TwinStrep-SUMO cleaved; N-terminal SNAP kept (SNAP-Surface 488); label: 3' end held by stalled T7 RNA polymerase

Binder	Kd [nM]
B1	23.4 ± 3.5
B2	30 ± 4.5
B3	112 ± 35
B4	26.5 ± 2.7
B5	29.2 ± 3.4
B6	61 ± 13
B7	39 ± 6
B8	21.1 ± 1.4
B9	19.9 ± 2.2
B10	47 ± 6
B11	81 ± 20
B12	17.9 ± 2.1
B13	63 ± 7
B14	90.5 ± 16
B15	63 ± 9.5
B16	32 ± 4.5
B17	69 ± 20
B18	71 ± 8.5
B19	96.5 ± 15.5
B20	~87
B21	26.5 ± 6
B22	29.3 ± 3.75
B23	123 ± 29
B24	22.1 ± 1.9
B25	63.5 ± 7.5
B26	16.6 ± 0.9
B27	9.5 ± 1
B28	6.8 ± 0.6
